Reference: PMC8096781

Biological target: endogenous PKM2 (HeLa cells) (human (endogenous in HeLa)) (UniProt P14618)
Experiment: SEC; gel chromatography (Superdex 200, cold PBS, 4 °C, 0.3 mL/min) of extracts of HeLa cells with vector, FOXM1A or FOXM1D; fractions analysed by western blot

Sequence of endogenous PKM2 (HeLa cells), P14618 1-531 (enzyme; other documents disagree on this pair) (P14618 whole entry): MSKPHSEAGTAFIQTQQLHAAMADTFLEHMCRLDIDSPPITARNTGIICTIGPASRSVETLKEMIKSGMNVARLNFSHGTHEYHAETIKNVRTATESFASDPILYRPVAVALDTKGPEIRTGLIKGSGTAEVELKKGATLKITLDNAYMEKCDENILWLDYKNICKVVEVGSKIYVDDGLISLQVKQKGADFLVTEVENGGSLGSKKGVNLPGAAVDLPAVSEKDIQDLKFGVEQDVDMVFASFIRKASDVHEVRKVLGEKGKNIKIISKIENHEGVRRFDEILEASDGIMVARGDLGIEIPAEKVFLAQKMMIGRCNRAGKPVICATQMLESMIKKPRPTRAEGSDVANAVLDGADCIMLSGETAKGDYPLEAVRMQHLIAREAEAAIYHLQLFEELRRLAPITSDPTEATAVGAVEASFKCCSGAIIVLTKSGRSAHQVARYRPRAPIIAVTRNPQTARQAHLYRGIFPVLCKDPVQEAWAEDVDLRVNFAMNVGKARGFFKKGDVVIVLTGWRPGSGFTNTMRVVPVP

endogenous PKM2 (HeLa cells), P14618 1-531 (enzyme; other documents disagree on this pair)
stoichiometry N: 2
